Experimental data taken from patent US20190000928A1.
Positions of bridges follow the written chain, without caps; N, C: chain ends. Non-standard residues stand in square brackets, D forms with d. No end group written: not given here. L5 = not defined here; L6 = not defined here

B1: mTA 6: GLP-1/Glucagon (D) and L5 (peptide)
chain: H[dS]QGTFTSDYSKYLDEKAAKEFIKWLLNGGPSSGAPPPS
modifications: linker 17-24 via L5; reading uncertain; also: fatty acid attached to the staple, identity not given here, printed as HsQGTFTSDYSKYLDEXAAKEFIXWLLNGGPSSGAPPPS
B2: mTA 7: GLP-2 (G) and L6 (peptide)
chain: HGDGSFSDEMKTILDNLKARDFINWLIQTKITD
modifications: linker 11-18 via L6; reading uncertain; also: fatty acid attached to the staple, identity not given here

Tests used:
Experiment in all cases: cell-based or functional assay
[1] = target: human glucagon receptor (GCGR) (human) (UniProt P47871)
Chain of human glucagon receptor (GCGR) (human) (P47871 26-477): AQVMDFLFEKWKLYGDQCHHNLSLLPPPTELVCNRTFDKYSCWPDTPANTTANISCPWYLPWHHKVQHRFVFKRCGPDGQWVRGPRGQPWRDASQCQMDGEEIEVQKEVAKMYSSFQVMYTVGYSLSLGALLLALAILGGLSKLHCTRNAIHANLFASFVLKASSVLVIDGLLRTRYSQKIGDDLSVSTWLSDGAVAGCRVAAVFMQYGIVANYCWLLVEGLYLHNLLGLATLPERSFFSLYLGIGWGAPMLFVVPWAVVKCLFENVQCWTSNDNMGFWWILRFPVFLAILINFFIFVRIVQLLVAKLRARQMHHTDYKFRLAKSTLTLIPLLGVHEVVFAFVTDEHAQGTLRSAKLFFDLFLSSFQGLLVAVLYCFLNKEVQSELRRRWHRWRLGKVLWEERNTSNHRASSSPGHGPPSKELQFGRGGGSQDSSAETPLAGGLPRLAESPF

[2] = target: human glucagon-like peptide 1 receptor (GLP-1R) (human) (UniProt P43220)
Chain of human glucagon-like peptide 1 receptor (GLP-1R) (human) (P43220 24-463): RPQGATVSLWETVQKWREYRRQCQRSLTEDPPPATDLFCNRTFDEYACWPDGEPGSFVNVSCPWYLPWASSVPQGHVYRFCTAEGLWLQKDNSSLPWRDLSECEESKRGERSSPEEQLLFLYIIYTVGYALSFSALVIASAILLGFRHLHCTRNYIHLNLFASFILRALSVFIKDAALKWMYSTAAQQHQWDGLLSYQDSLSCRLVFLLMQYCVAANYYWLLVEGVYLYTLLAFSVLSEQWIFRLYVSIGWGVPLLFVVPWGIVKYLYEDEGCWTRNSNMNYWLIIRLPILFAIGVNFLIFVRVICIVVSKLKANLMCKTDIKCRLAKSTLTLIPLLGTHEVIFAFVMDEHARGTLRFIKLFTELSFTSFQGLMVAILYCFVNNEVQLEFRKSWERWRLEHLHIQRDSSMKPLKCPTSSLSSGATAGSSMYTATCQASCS

[3] = target: human glucagon-like peptide 2 receptor (GLP-2R) (human) (UniProt O95838)
Chain of human glucagon-like peptide 2 receptor (GLP-2R) (human) (O95838 whole entry): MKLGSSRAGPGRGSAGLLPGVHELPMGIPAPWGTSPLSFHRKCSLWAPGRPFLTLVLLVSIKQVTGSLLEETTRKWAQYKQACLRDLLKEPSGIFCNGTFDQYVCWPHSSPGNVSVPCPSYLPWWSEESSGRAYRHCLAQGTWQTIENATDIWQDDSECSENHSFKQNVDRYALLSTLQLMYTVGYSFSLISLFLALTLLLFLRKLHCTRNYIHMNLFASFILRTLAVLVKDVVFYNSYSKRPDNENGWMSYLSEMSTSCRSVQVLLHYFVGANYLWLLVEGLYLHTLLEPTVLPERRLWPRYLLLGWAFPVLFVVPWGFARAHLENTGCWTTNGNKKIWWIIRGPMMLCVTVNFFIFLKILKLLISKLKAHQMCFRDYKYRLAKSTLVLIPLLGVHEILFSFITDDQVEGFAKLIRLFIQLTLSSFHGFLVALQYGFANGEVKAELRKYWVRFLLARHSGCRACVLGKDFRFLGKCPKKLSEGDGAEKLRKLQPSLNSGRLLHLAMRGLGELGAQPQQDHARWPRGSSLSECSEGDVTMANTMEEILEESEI

Binder | GCGR (EC50, nM); CRE luciferase reporter in HEK293-GCGR-CRE cells [1] [nM] | GLP-1R (EC50, nM); CRE luciferase reporter in HEK293-GLP-1R-CRE cells [2] [nM] | GLP-2R (EC50, nM); CRE luciferase reporter in HEK293-GLP-2R-CRE cells [3] [nM]
B1 | 0.62 | 0.03 | –
B2 | – | – | 0.068
